Data reported in the supplement of paper PMC10065799, “High-throughput profiling of sequence recognition by tyrosine kinases and SH2 domains using bacterial peptide display” (eLife, 2023).

How the values were obtained:
c-Src SH2 = experiment: SH2 binding enrichment of the phosphorylated peptide, bacterial display (enrichment ratio); higher = better substrate or ligand; peptides without Tyr show the background
SHP2-C SH2 = experiment: as above
Grb2 SH2 = Grb2 SH2 (UniProt P62993); experiment: as above
c-Src = experiment: phosphorylation enrichment, bacterial display (enrichment ratio); higher = better substrate or ligand; peptides without Tyr show the background
MERTK = MERTK (UniProt Q12866); experiment: as above
Jak2 = Jak2 (UniProt O60674); experiment: as above
EPHB2 = EPHB2 (UniProt P29323); experiment: as above
EPHB1 = EPHB1 (UniProt P54762); experiment: as above
Fer (mouse) = experiment: as above
AncSZ = experiment: as above
Fyn = Fyn (UniProt P06241); experiment: as above
FGFR3 = FGFR3 (UniProt P22607); experiment: as above
Hck = Hck (UniProt P08631); experiment: as above
FGFR1 = FGFR1 (UniProt P11362); experiment: as above
c-Abl (mouse) = experiment: as above
Fes = Fes (UniProt P07332); experiment: as above
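Wherever SH2 binding enrichment of the phosphorylated peptide, bacterial display is given: peptide library displayed on the E. coli surface as eCPX fusions, selected cells deep-sequenced, score is each peptide's frequency after selection divided by its frequency in the input.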
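Wherever phosphorylation enrichment, bacterial display is given: 11-residue human phosphosite peptides and single-mutation variants displayed on the E. coli surface, counted by deep sequencing, each peptide's frequency after selection divided by its frequency in the unselected input library; frequency after pTyr selection over input frequency; kinase dosed for 20-30% of maximal phosphorylation in three min.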

Sequence of EPHB2 (P29323 whole entry, looked up): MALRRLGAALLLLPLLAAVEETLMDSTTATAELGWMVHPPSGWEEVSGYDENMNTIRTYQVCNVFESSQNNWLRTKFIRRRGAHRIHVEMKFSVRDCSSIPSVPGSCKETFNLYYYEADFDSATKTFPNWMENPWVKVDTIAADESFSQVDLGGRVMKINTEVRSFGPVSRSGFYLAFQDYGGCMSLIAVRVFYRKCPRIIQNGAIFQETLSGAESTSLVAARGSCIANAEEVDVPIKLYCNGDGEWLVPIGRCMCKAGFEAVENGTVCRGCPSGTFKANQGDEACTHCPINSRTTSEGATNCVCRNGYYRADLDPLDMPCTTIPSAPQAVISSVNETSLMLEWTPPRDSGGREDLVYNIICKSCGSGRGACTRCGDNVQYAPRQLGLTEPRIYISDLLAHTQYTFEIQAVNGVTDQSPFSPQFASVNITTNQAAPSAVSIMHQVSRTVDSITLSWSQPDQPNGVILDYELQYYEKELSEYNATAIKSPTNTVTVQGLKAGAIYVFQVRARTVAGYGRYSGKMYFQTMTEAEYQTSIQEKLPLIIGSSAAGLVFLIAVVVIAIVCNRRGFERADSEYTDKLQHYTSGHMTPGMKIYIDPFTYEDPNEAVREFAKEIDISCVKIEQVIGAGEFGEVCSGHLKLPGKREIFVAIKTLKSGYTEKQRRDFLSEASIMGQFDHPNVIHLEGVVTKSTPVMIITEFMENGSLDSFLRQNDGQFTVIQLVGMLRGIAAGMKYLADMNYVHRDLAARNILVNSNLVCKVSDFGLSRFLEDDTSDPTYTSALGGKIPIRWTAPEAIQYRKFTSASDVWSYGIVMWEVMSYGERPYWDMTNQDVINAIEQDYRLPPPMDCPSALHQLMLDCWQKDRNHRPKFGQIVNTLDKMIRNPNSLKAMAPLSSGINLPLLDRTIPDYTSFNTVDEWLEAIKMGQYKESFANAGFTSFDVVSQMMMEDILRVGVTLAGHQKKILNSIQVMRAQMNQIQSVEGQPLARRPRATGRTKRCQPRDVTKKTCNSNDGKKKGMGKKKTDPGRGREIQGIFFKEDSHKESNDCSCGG
Sequence of Fes (P07332 whole entry, looked up, the tested form may be a part): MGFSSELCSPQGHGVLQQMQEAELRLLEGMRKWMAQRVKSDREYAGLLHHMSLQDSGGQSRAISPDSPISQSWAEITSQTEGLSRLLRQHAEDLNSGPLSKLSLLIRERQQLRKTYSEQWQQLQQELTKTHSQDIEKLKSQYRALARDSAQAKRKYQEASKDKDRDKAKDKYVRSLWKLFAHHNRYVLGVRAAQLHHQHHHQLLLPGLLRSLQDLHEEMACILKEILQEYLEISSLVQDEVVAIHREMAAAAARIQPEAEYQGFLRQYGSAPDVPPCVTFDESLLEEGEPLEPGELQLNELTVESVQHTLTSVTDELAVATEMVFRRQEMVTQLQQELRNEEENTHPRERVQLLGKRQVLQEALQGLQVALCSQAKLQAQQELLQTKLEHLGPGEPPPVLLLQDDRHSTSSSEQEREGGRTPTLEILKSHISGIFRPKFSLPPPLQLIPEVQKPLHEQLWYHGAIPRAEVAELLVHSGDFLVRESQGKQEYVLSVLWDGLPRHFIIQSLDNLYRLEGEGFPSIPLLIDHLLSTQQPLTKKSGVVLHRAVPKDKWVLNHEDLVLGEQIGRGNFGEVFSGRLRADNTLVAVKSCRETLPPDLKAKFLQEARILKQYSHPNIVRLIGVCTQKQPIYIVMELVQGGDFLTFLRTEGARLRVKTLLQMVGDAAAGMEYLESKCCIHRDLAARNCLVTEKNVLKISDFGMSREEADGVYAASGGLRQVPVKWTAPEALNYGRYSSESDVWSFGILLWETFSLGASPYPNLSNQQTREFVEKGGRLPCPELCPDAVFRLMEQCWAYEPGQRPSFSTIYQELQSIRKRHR
Sequence of Jak2 (O60674 whole entry, looked up): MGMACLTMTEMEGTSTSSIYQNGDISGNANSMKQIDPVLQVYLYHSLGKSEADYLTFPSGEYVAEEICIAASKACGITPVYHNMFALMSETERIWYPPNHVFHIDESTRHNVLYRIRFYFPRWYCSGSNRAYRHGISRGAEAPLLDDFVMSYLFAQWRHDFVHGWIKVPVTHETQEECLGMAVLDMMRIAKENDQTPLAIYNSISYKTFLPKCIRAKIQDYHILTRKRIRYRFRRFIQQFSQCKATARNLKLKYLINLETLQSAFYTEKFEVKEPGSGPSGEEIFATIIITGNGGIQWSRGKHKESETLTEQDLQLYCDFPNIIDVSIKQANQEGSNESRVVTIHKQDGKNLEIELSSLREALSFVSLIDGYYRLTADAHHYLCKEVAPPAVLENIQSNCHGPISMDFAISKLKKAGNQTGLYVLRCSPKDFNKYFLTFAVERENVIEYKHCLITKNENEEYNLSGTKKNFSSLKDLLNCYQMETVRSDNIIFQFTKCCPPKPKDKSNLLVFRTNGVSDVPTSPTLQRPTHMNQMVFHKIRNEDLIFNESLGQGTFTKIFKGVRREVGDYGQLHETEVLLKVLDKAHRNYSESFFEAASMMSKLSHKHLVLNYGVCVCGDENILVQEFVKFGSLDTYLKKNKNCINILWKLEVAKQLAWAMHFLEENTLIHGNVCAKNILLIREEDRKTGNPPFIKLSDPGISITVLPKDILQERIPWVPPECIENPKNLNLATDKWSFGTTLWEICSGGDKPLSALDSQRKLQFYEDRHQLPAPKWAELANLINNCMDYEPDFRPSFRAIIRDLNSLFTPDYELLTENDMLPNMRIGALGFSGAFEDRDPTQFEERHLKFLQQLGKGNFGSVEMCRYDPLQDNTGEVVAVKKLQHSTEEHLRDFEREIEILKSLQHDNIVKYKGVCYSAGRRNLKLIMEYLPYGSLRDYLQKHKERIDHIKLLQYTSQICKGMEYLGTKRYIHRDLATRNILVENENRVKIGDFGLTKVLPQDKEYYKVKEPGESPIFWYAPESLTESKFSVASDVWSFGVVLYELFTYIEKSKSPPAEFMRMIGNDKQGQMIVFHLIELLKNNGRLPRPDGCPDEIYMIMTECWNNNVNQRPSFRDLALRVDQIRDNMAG
Sequence of Fyn (P06241 whole entry, looked up): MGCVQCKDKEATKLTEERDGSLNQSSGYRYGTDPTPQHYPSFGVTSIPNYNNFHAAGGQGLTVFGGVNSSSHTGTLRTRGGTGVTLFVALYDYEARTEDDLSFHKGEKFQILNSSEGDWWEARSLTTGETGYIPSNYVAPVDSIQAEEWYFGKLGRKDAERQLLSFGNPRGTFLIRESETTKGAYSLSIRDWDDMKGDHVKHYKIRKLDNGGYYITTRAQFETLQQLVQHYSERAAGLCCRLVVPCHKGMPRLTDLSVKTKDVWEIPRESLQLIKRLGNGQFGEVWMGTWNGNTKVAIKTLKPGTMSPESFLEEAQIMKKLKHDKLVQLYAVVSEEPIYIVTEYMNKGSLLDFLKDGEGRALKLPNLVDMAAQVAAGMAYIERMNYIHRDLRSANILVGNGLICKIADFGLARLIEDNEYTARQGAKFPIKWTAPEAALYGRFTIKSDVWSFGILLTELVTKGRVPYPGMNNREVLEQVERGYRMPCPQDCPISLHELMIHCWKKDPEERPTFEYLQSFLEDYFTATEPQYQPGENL
Sequence of FGFR3 (P22607 whole entry, looked up): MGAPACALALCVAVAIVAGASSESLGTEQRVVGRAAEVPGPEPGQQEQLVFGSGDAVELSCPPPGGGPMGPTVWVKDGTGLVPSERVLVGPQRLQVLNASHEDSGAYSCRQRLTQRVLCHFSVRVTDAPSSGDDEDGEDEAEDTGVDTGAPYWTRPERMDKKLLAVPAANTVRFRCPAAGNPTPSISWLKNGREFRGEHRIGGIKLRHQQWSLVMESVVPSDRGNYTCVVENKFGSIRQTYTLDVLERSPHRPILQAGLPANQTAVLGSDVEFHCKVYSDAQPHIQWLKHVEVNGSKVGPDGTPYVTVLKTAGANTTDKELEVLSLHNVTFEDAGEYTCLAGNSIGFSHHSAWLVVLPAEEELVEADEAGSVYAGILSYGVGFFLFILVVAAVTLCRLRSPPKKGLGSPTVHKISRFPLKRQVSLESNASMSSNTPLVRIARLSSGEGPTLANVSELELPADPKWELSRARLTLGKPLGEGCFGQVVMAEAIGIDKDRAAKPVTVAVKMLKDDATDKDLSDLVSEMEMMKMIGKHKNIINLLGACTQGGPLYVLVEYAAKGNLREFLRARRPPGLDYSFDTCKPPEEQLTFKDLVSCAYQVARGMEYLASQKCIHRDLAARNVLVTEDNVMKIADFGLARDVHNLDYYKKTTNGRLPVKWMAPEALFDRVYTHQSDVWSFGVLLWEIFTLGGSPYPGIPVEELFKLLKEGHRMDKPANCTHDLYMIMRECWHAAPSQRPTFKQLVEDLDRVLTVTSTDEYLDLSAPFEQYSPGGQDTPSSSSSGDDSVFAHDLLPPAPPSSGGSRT
Sequence of Hck (P08631 whole entry, looked up): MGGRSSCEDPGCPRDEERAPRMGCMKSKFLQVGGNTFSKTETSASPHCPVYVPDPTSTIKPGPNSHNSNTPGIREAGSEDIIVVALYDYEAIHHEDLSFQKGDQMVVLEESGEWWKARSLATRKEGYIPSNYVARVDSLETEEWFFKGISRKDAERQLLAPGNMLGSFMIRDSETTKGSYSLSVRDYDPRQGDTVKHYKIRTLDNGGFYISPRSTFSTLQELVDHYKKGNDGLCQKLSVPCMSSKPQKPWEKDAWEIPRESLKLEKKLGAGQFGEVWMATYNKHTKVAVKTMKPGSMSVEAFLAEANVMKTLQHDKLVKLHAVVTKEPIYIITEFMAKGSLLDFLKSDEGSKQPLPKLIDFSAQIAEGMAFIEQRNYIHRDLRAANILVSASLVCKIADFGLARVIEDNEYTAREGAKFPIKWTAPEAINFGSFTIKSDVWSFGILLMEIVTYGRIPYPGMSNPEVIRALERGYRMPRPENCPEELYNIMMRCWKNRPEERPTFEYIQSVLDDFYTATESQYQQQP

| Sequence | SH2 binding enrichment (c-Src SH2) | SH2 binding enrichment (SHP2-C SH2) | SH2 binding enrichment (Grb2 SH2) | phosphorylation enrichment (c-Src) | phosphorylation enrichment (MERTK) | phosphorylation enrichment (Jak2) | phosphorylation enrichment (EPHB2) | phosphorylation enrichment (EPHB1) | phosphorylation enrichment (Fer (mouse)) | phosphorylation enrichment (AncSZ) | phosphorylation enrichment (Fyn) | phosphorylation enrichment (FGFR3) | phosphorylation enrichment (Hck) | phosphorylation enrichment (FGFR1) | phosphorylation enrichment (c-Abl (mouse)) | phosphorylation enrichment (Fes) |
| --- | --- | --- | --- | --- | --- | --- | --- | --- | --- | --- | --- | --- | --- | --- | --- | --- |
| LMIEEYLTKEP [BAG3_Y457_L462P] | 0.552 | 0.953 | 0.743 | 1.49 | 1.12 | 2.78 | 0.975 | 1.15 | 0.745 | 2.05 | 0.6 | 1.88 | 1.5 | 1.2 | 2.45 | 2.51 |
| LNLKEYNLVGG [GNAQ_Y356] | 1.17 | 0.844 | 0.783 | 0.561 | 0.424 | 0.793 | 0.411 | 0.307 | 0.685 | 1.23 | 0.529 | 0.698 | 0.485 | 0.357 | 0.709 | 0.867 |
| LSERGYSFVTT [ACTA2_Y200_T196S] | 8.52 | 5.26 | 0.806 | 0.693 | 0.986 | 1.08 | 0.704 | 0.94 | 1.06 | 1.29 | 0.81 | 1.46 | 0.724 | 0.955 | 0.925 | 1.41 |
| LVSCAYQVARG [FGFR1_Y605] | 0.644 | 0.728 | 0.883 | 0.577 | 0.424 | 0.657 | 0.612 | 0.61 | 0.505 | 0.867 | 0.487 | 0.577 | 0.609 | 0.462 | 0.641 | 0.89 |
| LVSCTYQLARR [FGFR2_Y608_G613R] | 0.401 | 0.484 | 0.851 | 0.438 | 0.861 | 1.36 | 1.28 | 0.816 | 0.896 | 1.57 | 0.699 | 0.793 | 0.891 | 0.788 | 0.721 | 1.33 |
| MAPQMYEFHLP [NCAPD2_Y6] | 0.411 | 0.582 | 0.656 | 0.655 | 5.35 | 0.592 | 3.16 | 4.23 | 19.6 | 0.795 | 0.506 | 0.719 | 0.624 | 0.443 | 0.473 | 0.766 |
| MAQDIYRASFF [ALK_Y1278_R1275Q_YF] | 0.456 | 0.738 | 1.04 | 2.28 | 0.66 | 0.711 | 0.499 | 0.353 | 0.446 | 0.683 | 1.52 | 0.482 | 2.06 | 0.462 | 12.2 | 0.69 |
| MEIHAYRKLSE [LMNA_Y376_L380S] | 0.432 | 0.641 | 0.718 | 0.384 | 0.342 | 0.678 | 0.459 | 0.379 | 0.39 | 0.729 | 0.356 | 0.495 | 0.466 | 0.371 | 0.641 | 0.788 |
| MEVGQYIFVKC [CYBB_Y324] | 0.539 | 0.651 | 0.781 | 0.463 | 0.511 | 1.53 | 0.723 | 0.835 | 0.708 | 1.74 | 0.599 | 2.43 | 0.582 | 2.8 | 1.01 | 1.53 |
| MGCVNYGAFIN [GLB1_Y485_R482C_YF] | 0.514 | 0.793 | 0.752 | 1.19 | 0.606 | 1.14 | 0.617 | 0.69 | 0.522 | 1.05 | 0.553 | 0.825 | 0.532 | 0.531 | 1.01 | 1.26 |

Further lines, with some results ahead:

| SH2 binding enrichment (c-Src SH2) | SH2 binding enrichment (SHP2-C SH2) | SH2 binding enrichment (Grb2 SH2) | Sequence | phosphorylation enrichment (c-Src) | phosphorylation enrichment (MERTK) | phosphorylation enrichment (Jak2) | phosphorylation enrichment (EPHB2) | phosphorylation enrichment (EPHB1) | phosphorylation enrichment (Fer (mouse)) | phosphorylation enrichment (AncSZ) | phosphorylation enrichment (Fyn) | phosphorylation enrichment (FGFR3) | phosphorylation enrichment (Hck) | phosphorylation enrichment (FGFR1) | phosphorylation enrichment (c-Abl (mouse)) | phosphorylation enrichment (Fes) |
| --- | --- | --- | --- | --- | --- | --- | --- | --- | --- | --- | --- | --- | --- | --- | --- | --- |
| 1.41 | 1.64 | 1.96 | LLVVVYKFRCF [PSEN1_Y154_L153V_YF] | 0.455 | 0.463 | 0.707 | 0.45 | 0.446 | 0.471 | 0.949 | 0.359 | 0.676 | 0.462 | 0.446 | 1.19 | 1.3 |
| 0.518 | 0.761 | 0.958 | LNEQHYGGLTG [PGAM4_Y92_R90Q] | 1.04 | 0.845 | 0.915 | 0.574 | 0.949 | 0.769 | 0.752 | 0.956 | 0.972 | 0.902 | 0.659 | 1.5 | 1.2 |
| 0.727 | 1.66 | 0.86 | LNPLIYSLRNK [OR5R1_Y290] | 6.55 | 1.5 | 1.13 | 1.29 | 2.03 | 1.21 | 1.13 | 6.76 | 1.44 | 8.23 | 1.94 | 2.28 | 2.46 |
| 0.471 | 0.776 | 0.948 | LSGFCYRLSDQ [PDCD6_Y124_G123C] | 0.607 | 0.566 | 1.53 | 1.28 | 1.08 | 0.816 | 1.66 | 0.928 | 1.33 | 0.804 | 0.932 | 1.34 | 1.46 |
| 5.33 | 0.959 | 0.811 | LTFHMYADPNI [SOS1_Y618_F623I_YF] | 0.564 | 0.583 | 2.23 | 2.05 | 1.77 | 1.25 | 2.46 | 0.747 | 2.09 | 0.799 | 1.35 | 1.57 | 2.48 |
| 0.456 | 0.639 | 0.771 | LWQSIYNLDAE [TNNT2_Y251_E254D] | 6.55 | 0.497 | 0.981 | 1.18 | 0.883 | 0.513 | 1.38 | 9.69 | 0.784 | 6.38 | 0.658 | 0.706 | 1.2 |
| 1.08 | 0.64 | 0.724 | MAFDRYVAICS [OR8D4_Y123_C120Y_YF] | 0.489 | 0.507 | 1.07 | 0.762 | 0.905 | 0.563 | 1.15 | 0.515 | 0.726 | 0.665 | 0.463 | 0.78 | 1.14 |
